This note sets out measurements from paper PMC9057599.

The test deals with histone H4 N-terminus, 1-30 (UniProt P62805). In words: biotin-peptide pulldown, blot. The conditions noted are these: reference: wild type ZMYND8; sites S486,S490.

For the substance “ZMYND8 (from UniProt Q9ULU4) 2SA (S486A/S490A)”, the “binding against the reference” value was “stronger”.
